In IntAct's records for PubMed 29039417:

B1: BBSome complex member BBS1 (Homo sapiens), Q8NFJ9 (parent)
chain: MAAASSSDSDACGAESNEANSKWLDAHYDPMANIHTFSACLALADLHGDGEYKLVVGDLGPGGQQPRLKVLKGPLVMTESPLPALPAAAATFLMEQHEPRTPALALASGPCVYVYKNLRPYFKFSLPQLPPNPLEQDLWNQAKEDRIDPLTLKEMLESIRETAEEPLSIQSLRFLQLELSEMEAFVNQHKSNSIKRQTVITTMTTLKKNLADEDAVSCLVLGTENKELLVLDPEAFTILAKMSLPSVPVFLEVSGQFDVEFRLAAACRNGNIYILRRDSKHPKYCIELSAQPVGLIRVHKVLVVGSTQDSLHGFTHKGKKLWTVQMPAAILTMNLLEQHSRGLQAVMAGLANGEVRIYRDKALLNVIHTPDAVTSLCFGRYGREDNTLIMTTRGGGLIIKILKRTAVFVEGGSEVGPPPAQAMKLNVPRKTRLYVDQTLREREAGTAMHRAFQTDLYLLRLRAARAYLQALESSLSPLSTTAREPLKLHAVVQGLGPTFKLTLHLQNTSTTRPVLGLLVCFLYNEALYSLPRAFFKVPLLVPGLNYPLETFVESLSNKGISDIIKVLVLREGQSAPLLSAHVNMPGSEGLAAA
partner: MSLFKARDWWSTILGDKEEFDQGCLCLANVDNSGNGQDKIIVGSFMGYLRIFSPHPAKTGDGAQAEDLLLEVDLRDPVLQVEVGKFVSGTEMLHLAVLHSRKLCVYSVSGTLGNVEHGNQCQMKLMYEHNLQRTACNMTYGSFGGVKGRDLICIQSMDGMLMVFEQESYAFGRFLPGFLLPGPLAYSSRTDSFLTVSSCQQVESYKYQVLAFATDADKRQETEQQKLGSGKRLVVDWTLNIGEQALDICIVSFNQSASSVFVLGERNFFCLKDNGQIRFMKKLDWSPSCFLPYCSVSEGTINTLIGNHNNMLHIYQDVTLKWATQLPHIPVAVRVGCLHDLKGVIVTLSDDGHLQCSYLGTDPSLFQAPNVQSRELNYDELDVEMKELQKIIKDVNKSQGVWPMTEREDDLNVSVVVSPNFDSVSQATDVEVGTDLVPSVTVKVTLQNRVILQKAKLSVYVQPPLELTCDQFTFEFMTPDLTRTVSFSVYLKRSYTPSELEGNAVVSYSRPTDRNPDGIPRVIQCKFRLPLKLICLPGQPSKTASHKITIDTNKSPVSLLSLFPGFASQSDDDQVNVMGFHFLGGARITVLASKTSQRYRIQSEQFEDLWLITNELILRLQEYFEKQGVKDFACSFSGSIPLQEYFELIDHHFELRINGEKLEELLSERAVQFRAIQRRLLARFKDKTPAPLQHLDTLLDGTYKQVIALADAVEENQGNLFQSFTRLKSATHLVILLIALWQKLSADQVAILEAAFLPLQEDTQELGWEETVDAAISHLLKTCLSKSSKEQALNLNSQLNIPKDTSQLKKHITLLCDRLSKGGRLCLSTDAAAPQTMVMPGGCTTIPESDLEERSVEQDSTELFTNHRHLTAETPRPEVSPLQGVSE

Variants of: B1
Details: with pthb1_human BBS9, Q3SYG4

Variant	effect of a mutation on the interaction
MAAASSSDSDACGAESNEANSKWLDAHYDPMANIHTFSACLALADLHGDGEYKLVVGDLGPGGQQPRLKVLKGPLVMTESPLPALPAAAATFLMEQHEPRTPALALASGPCVYVYKNLRPYFKFSLPQLPPNPLEQDLWNQAKEDRIDPLTLKEMLESIRETAEEPLSIQSLRFLQLELSEMEAFVNQHKSNSIKRQTVITTMTTLKKNLADEDAVSCLVLGTENKELLVLDPEAFTILAKMSLPSVPVFLEVSGQFDVEFRLAAACRNGNIYILRRDSKHPKYCIELSAQPVGLIRVHKVLVVGSTQDSLHGFTHKGKKLWTVQMPAAILTMNLLEQHSRGLQAVMAGLANGEVRIYRDKALLNVIHTPDAVTSLCFGRYGREDNTLIMTTRGGGLIIKILKRTAVFVEGGSEVGPPPAQAMKLNVPRKTRLYVDQTLREREAGTAMHRAFQTDLYLLRLRAARAYLQALESSLSPLSTTAREPLKLHAVVQGLGPTFKLTLHLQNTSTTRPVLGLLVCFLYNEALYSLPRAFFKVPLLVPGLNYPLETFVESLENKGISDIIKVLVLREGQSAPLLSAHVNMPGSEGLAAA [S556E]	with no effect
MAAASSSDSDACGAESNEANSKWLDAHYDPMANIHTFSACLALADLHGDGEYKLVVGDLGPGGQQPRLKVLKGPLVMTESPLPALPAAAATFLMEQHEPRTPALALASGPCVYVYKNLRPYFKFSLPQLPPNPLEQDLWNQAKEDRIDPLTLKEMLESIRETAEEPLSIQSLRFLQLELSEMEAFVNQHKSNSIKRQTVITTMTTLKKNLADEDAVSCLVLGTENKELLVLDPEAFTILAKMSLPSVPVFLEVSGQFDVEFRLAAACRNGNIYILRRDSKHPKYCIELSAQPVGLIRVHKVLVVGSTQDSLHGFTHKGKKLWTVQMPAAILTMNLLEQHSRGLQAVMAGLANGEVRIYRDKALLNVIHTPDAVTSLCFGRYGREDNTLIMTTRGGGLIIKILKRTAVFVEGGSEVGPPPAQAMKLNVPRKTRLYVDQTLREREAGTAMHRAFQTDLYLLRLRAARAYLQALESSLSPLSTTAREPLKLHAVVQGLGPTFKLTLHLQNTSTTRPVLGLLVCFLYNEALYSLPRAFFKVPLLVPGLNYPLETFVESLANKGISDIIKVLVLREGQSAPLLSAHVNMPGSEGLAAA [S556A]	with no effect
MAAASSSDSDACGAESNEANSKWLDAHYDPMANIHTFSACLALADLHGDGEYKLVVGDLGPGGQQPRLKVLKGPLVMTESPLPALPAAAATFLMEQHEPRTPALALASGPCVYVYKNLRPYFKFSLPQLPPNPLEQDLWNQAKEDRIDPLTLKEMLESIRETAEEPLSIQSLRFLQLELSEMEAFVNQHKSNSIKRQTVITTMTTLKKNLADEDAVSCLVLGTENKELLVLDPEAFTILAKMSLPSVPVFLEVSGQFDVEFRLAAACRNGNIYILRRDSKHPKYCIELSAQPVGLIRVHKVLVVGSTQDSLHGFTHKGKKLWTVQMPAAILTMNLLEQHSRGLQAVMAGLANGEVRIYRDKALLNVIHTPDAVTSLCFGRYGREDNTLIMTTRGGGLIIKILKRTAVFVEGGSEVGPPPAQAMKLNVPRKTRLYVDQTLREREAGTAMHRAFQTDLYLLRLRAARAYLQALESSLSPLSTTAREPLKLHAVVQGLGPTFKLTLHLQNTSTTRPVLGLLVCFLYNEALYSLPRAFFKVPLLVPGLNYPLETFVESLKNKGISDIIKVLVLREGQSAPLLSAHVNMPGSEGLAAA [S556K]	with no effect

Other lines, results leading:

effect of a mutation on the interaction	Variant
with no effect	MAAASSSDSDACGAESNEANSKWLDAHYDPMANIHTFSACLALADLHGDGEYKLVVGDLGPGGQQPRLKVLKGPLVMTESPLPALPAAAATFLMEQHEPRTPALALASGPCVYVYKNLRPYFKFSLPQLPPNPLEQDLWNQAKEDRIDPLTLKEMLESIRETAEEPLSIQSLRFLQLELSEMEAFVNQHKSNSIKRQTVITTMTTLKKNLADEDAVSCLVLGTENKELLVLDPEAFTILAKMSLPSVPVFLEVSGQFDVEFRLAAACRNGNIYILRRDSKHPKYCIELSAQPVGLIRVHKVLVVGSTQDSLHGFTHKGKKLWTVQMPAAILTMNLLEQHSRGLQAVMAGLANGEVRIYRDKALLNVIHTPDAVTSLCFGRYGREDNTLIMTTRGGGLIIKILKRTAVFVEGGSEVGPPPAQAMKLNVPRKTRLYVDQTLREREAGTAMHRAFQTDLYLLRLRAARAYLQALESSLSPLSTTAREPLKLHAVVQGLGPTFKLTLHLQNTSTTRPVLGLLVCFLYNEALYSLPRAFFKVPLLVPGLNYPLETFVESLSNAGISDIIKVLVLREGQSAPLLSAHVNMPGSEGLAAA [K558A]
with no effect	MAAASSSDSDACGAESNEANSKWLDAHYDPMANIHTFSACLALADLHGDGEYKLVVGDLGPGGQQPRLKVLKGPLVMTESPLPALPAAAATFLMEQHEPRTPALALASGPCVYVYKNLRPYFKFSLPQLPPNPLEQDLWNQAKEDRIDPLTLKEMLESIRETAEEPLSIQSLRFLQLELSEMEAFVNQHKSNSIKRQTVITTMTTLKKNLADEDAVSCLVLGTENKELLVLDPEAFTILAKMSLPSVPVFLEVSGQFDVEFRLAAACRNGNIYILRRDSKHPKYCIELSAQPVGLIRVHKVLVVGSTQDSLHGFTHKGKKLWTVQMPAAILTMNLLEQHSRGLQAVMAGLANGEVRIYRDKALLNVIHTPDAVTSLCFGRYGREDNTLIMTTRGGGLIIKILKRTAVFVEGGSEVGPPPAQAMKLNVPRKTRLYVDQTLREREAGTAMHRAFQTDLYLLRLRAARAYLQALESSLSPLSTTAREPLKLHAVVQGLGPTFKLTLHLQNTSTTRPVLGLLVCFLYNEALYSLPRAFFKVPLLVPGLNYPLETFVESLSNEGISDIIKVLVLREGQSAPLLSAHVNMPGSEGLAAA [K558E]
